B1: anti-GlcCer VHH 41D01 (VHH)
VHH: QVQLQESGGGLVQAGGSLRLSCAASGRTFSRYGMGWFRQLPGKQRELVTSITRGGTTTYADSVKGRFTISRDNAKNTVYLQMNSLKPEDTAVYYCNARSIWRDYWGQGTQVTVSS
notes: Llama VHH raised against fungal glucosylceramide, made in E. coli and purified through its hexahistidine tag; Tested as purified VHH at 0.1 ug/ml; also called GlcCer-specific VHH 41D01; not shown: C-terminal (His)6 and c-myc peptide tags coded by vector pASF20
B2: anti-GlcCer VHH 56F11 (VHH)
VHH: QVQLQESGGGLVQSGGSLRLSCVHSKTTFTRNAMGWYRQALGKERELVATITSGGTTNYADSVKGRFTISMDSAKNTVYLQMNSLKPEDTAVYYCNVNTRRIFGGTVREYWGQGTQVTVSS
notes: Llama VHH raised against fungal glucosylceramide, made in E. coli and purified through its hexahistidine tag; Tested as purified VHH at 1 ug/ml; not shown: C-terminal (His)6 and c-myc peptide tags coded by vector pASF20

Target: T1, potato lectin (Solanum Tuberosum Lectin, Vector labs, cat#: L-1160) (Solanum tuberosum (potato), UniProt Q9S8M0 23-323)
T1 construct: Bought glycoprotein coated on ELISA wells as an unrelated control compound
T1 sequence: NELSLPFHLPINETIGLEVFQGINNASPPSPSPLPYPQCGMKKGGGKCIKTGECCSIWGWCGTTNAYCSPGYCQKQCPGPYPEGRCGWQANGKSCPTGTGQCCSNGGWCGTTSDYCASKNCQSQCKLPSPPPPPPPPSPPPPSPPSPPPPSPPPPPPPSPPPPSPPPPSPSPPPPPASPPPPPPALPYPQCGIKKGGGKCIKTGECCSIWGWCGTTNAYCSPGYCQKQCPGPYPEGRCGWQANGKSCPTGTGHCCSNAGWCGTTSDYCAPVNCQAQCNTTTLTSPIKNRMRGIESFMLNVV
Experiment: ELISA, purified VHH on wells coated with potato lectin, OD 405 nm

Row | Binder | binding result
1 | B1 | no binding (tested: 0.1 µg/ml)
2 | B2 | no binding (tested: 1 µg/ml)

— patent US20160145325A1 (AGROSAVFE N V, published 2016)
